Columns and labels:
[1] = biological target: SARS-CoV-2 N-protein N:G215C (reduced), full-length (SARS-CoV-2) (UniProt P0DTC9); test: mass photometry
[2] = biological target: SARS-CoV-2 N-protein N:G215C (reduced), full-length (SARS-CoV-2) (UniProt P0DTC9); test: AUC
[3] = biological target: SARS-CoV-2 N-protein N:G215C* (oxidized), full-length (SARS-CoV-2) (UniProt P0DTC9); test: mass photometry
[4] = biological target: SARS-CoV-2 N-protein N:R203K/G204R, full-length (SARS-CoV-2) (UniProt P0DTC9); test: mass photometry
[5] = biological target: SARS-CoV-2 N-protein Nο (Omicron set N:P13L/Δ31–33/R203K/G204R), full-length (SARS-CoV-2) (UniProt P0DTC9); test: mass photometry
dynamic light scattering = biological target: the molecule itself; test: dynamic light scattering

SARS-CoV-2 N-protein N:G215C (reduced), full-length (from UniProt P0DTC9 1-419) (natural protein)
best-fit effective RNP life-time (with SL7 RNA) [1]: 231 s
Kd [2]: 1 µM

SARS-CoV-2 N-protein N:G215C* (oxidized), full-length (from UniProt P0DTC9 1-419) (natural protein)
best-fit effective RNP life-time (with SL7 RNA) [3]: 41.8 s

SARS-CoV-2 N-protein N:R203K/G204R, full-length (from UniProt P0DTC9 1-419) (natural protein)
best-fit effective RNP life-time (with SL7 RNA) [4]: 54.6 s

SARS-CoV-2 N-protein Nο (Omicron set N:P13L/Δ31–33/R203K/G204R), full-length (from UniProt P0DTC9 1-419) (natural protein)
best-fit effective RNP life-time (with SL7 RNA) [5]: 58.5 s

MAGNCGDAALALLLLDRLNQLESKMSGKGQQQQGQTV [LRS peptide N_(210–246):G214C]
binding result (dynamic light scattering): binds
